Experimental data as given in US6255062A, “β-type DNA polymerases” (priority 1994, dated 2001).

Assays:
[1] = biological target: T1, yeast β-type DNA polymerase (Saccharomyces cerevisiae, UniProt P25615); assay: Inhibitor sensitivity of DNA polymerase activity in 12CA5 immunoprecipitates; format: biochemical; conditions: for Polβ Activity (1): experiment 1; for Polβ Activity (2): experiment 2
T1 construct: made in house; host or cells: Saccharomyces cerevisiae BJ5459 carrying pGAL18HAβ, galactose induced; 12CA5 immunoprecipitate on protein A beads

[2] = tested on: DNA polymerases α, δ and ε; conditions: cited from earlier work
[3] = tested on: activated DNA or poly dA-oligo dT primer-template; assay: DNA polymerase activity in 12CA5 immunoprecipitates; format: biochemical; conditions: for Polβ Activity (1): experiment 1; for Polβ Activity (2): experiment 2
[4] = tested on: poly dT labeled at the 3'-end with terminal transferase; assay: 3' exonuclease activity; format: biochemical; conditions: data not shown
[5] = tested on: dA-dT and rA-dT primer-templates; assay: rNTP incorporation and reverse transcriptase activities of immunoprecipitated polymerase; format: biochemical
[6] = primer-template DNA, Aphidicolin (30 μg/ml), compare dCTP (10 mM) control
[7] = dA-dT (20:1), dTTP (10 mM)/ddTTP (10 mM)

Question: With `C[C@@]1(CO)[C@H](O)CC[C@@]2(C)[C@H]1CC[C@H]1C[C@@H]3C[C@@]12CC[C@]3(O)CO` [Aphidicolin, aphidicolin] as the molecule, how does the “sensitivity of yeast β-type DNA polymerase to aphidicolin” value ([1]; 30 μg/ml) read?
Answer: resistant

Question: And the “Polβ Activity (1)” value [1, 6]?
Answer: 162

Question: What about the “Polβ Activity (2)” value [1, 6] of the same molecule?
Answer: 78

Question: And the “inhibition of DNA polymerases α, δ and ε” value ([2]; aphidicolin 30 μg/ml)?
Answer: completely inhibits

Question: Which “sensitivity of yeast β-type DNA polymerase to N-ethylmaleimide” value ([1]; 10 mM) does the source give for `CCN1C(=O)C=CC1=O` [NEM, N-ethylmaleimide] here?
Answer: sensitive

Question: What about the “Polβ Activity (1)” value ([1]; primer-template DNA, NEM (10 mM)) of the same molecule?
Answer: 8

Question: Which “Polβ Activity (1)” value [1, 7] does the source give for `Cc1cn([C@H]2CC[C@@H](COP(=O)(O)OP(=O)(O)OP(=O)(O)O)O2)c(=O)[nH]c1=O` [ddTTP, dideoxythymidine triphosphate] here?
Answer: 11

Question: What about the “Polβ Activity (2)” value [1, 7] of the same molecule?
Answer: 6

Question: And the “effect of ddTTP on yeast β-type DNA polymerase” value ([1]; levels used in Table 2)?
Answer: inhibited

Question: What about the “inhibition of DNA polymerase α, δ and ε” value ([2]; ddTTP at the levels used here) of the same molecule?
Answer: does not inhibit

B1: HA polβ: β-type DNA polymerase from S. cerevisiae (POL4, SEQ ID NO:2) tagged at NH2 terminus with influenza hemagglutinin epitope (protein)
chain: MSLKGKFFAFLPNPNTSSNKFFKSILEKKGATIVSSIQNCLQSSRKEVIILIEDSFVDSDMHLTQKDIFQREAGLNDVDEFLGKIEQSGIQCVKTSCITKWVQNDKFAFQKDDLIKFQPSIIVISDNADDGQSSTDKESEISTDVESERNDDSNNKDMIQASKPLKRLLQEDKGRASLVTDKTKYKNNELIIGALKRLTKKYEIEGEKFRARSYRLAKQSMENCDFNVRSGEEAHTKLRNIGPSIAKKIQVILDTGVLPGLNDSVGLEDKLKYFKNCYGIGSEIAKRWNLLNFESFCVAAKKDPEEFVSDWTILFGWSYYDDWLCKMSRNECFTHLKKVQKALRGIDPECQVELQGSYNRGYSKCGDIDLLFFKPFCNDTTELAKIMETLCIKLYKDGYIHCFLQLTPNLEKLFLKRIVERFRTAKIVGYGERKRWYSSEIIKKFFMGVKFSPRELEELKEMKNDEGTLLIEEEEEEETKLNPIDQYMSLNAKDGNYCRRLDFFCCKWDELGAGRIHYTGSKEYNRWIRILAAQKGFKLTQHGLFRNNILLESFNERRIFELLNLKYAEPEHRNIEWEKKTA
modifications: N-terminal HA epitope tag
Question: With B1 as the molecule, how does the “DNA polymerase activity relative to controls” value [3] read?
Answer: 10 fold

Question: And the “synthesis on the poly dA template alone (primer requirement)” value [3]?
Answer: No synthesis was observed

Question: And the “Polβ Activity (1)” value ([3]; […], Complete)?
Answer: 101

Question: What about the “Polβ Activity (1)” value ([3]; […], dCTP (10 mM)) of the same molecule?
Answer: 212

Question: And the “Polβ Activity (2)” value ([3]; […], dCTP (10 mM))?
Answer: 106

Question: And the “Polβ Activity (1)” value ([3]; dA-dT (10:1), Complete)?
Answer: 105

Question: And the “Polβ Activity (2)” value ([3]; dA-dT (10:1), Complete)?
Answer: 244

Question: What about the “Polβ Activity (1)” value ([3]; dA-dT (20:1), Complete) of the same molecule?
Answer: 293

Question: What about the “Polβ Activity (2)” value ([3]; dA-dT (20:1), Complete) of the same molecule?
Answer: 411

Question: And the “Polβ Activity (1)” value ([3]; dA-dT (20:1), dTTP (10 mM))?
Answer: 95

Question: What about the “Polβ Activity (2)” value ([3]; dA-dT (20:1), dTTP (10 mM)) of the same molecule?
Answer: 102

Question: And the “3' exonuclease activity” value [4]?
Answer: no 3' exonuclease activity

Question: And the processivity [5]?
Answer: processivity is low

Question: What about the Activity ([5]; dA-dT, 3H NTP T, Mg, Experiment 1) of the same molecule?
Answer: 480 pmol

Question: And the Activity ([5]; dA-dT, 3H NTP T, Mn, Experiment 1)?
Answer: 769 pmol

Question: What about the Activity ([5]; dA-dT, 3H NTP U, Mg, Experiment 1) of the same molecule?
Answer: 110 pmol

Question: And the Activity ([5]; dA-dT, 3H NTP U, Mg, Experiment 2)?
Answer: 187 pmol

Question: What about the Activity ([5]; dA-dT, 3H NTP U, Mn, Experiment 1) of the same molecule?
Answer: 202 pmol

Question: What about the Activity ([5]; dA-dT, 3H NTP U, Mn, Experiment 2) of the same molecule?
Answer: 209 pmol

Question: What about the reverse transcriptase activity ([5]; in the presence of either Mg++ or Mn++) of the same molecule?
Answer: significant reverse transcriptase activity

Question: And the Activity ([5]; rA-dT, 3H NTP T, Mg, Experiment 1)?
Answer: 65 pmol

Question: And the Activity ([5]; rA-dT, 3H NTP T, Mg, Experiment 2)?
Answer: 81 pmol

Question: And the Activity ([5]; rA-dT, 3H NTP T, Mn, Experiment 1)?
Answer: 191 pmol

Question: And the Activity ([5]; rA-dT, 3H NTP T, Mn, Experiment 2)?
Answer: 59 pmol

Question: And the Activity ([5]; rA-dT, 3H NTP U, Mg, Experiment 2)?
Answer: 32 pmol

Question: What about the Activity ([5]; rA-dT, 3H NTP U, Mn, Experiment 2) of the same molecule?
Answer: 55 pmol
